# Assay results taken from publication PMC7081899.
# B1: 13B Fab (Fab, V domains shown)
# VH: LEESGGGLVQPEGSLTLTCKASGFDFSDYHVQWVRQSPGKGLEFIGGIAYTGNIYYASWAKGRFTISKTSSTTVTLQMTTLTAADTATYFCARAYGYASAPYAQYFNLWGPGTLVTVSS
# VL: DIVMTQTPASVSEPVGGTVTINCQASQSRGNNYLSWYQQKPGQSPSLLIYRTSTLASGVPSRFKGSGSGTQFTLTISDLECADAATYYCLYGYYSSRNPDFAFGGGTEVVVK
# Biological target: BG505_mut123_N241 SOSIP (HIV-1 (subtype A, BG505)) (UniProt Q2N0S6)
# Experiment: negative-stain EM
binder,measurement,value
B1,percent of particles that were trimers with no Fab bound,57%
same,percent of particles with one Fab bound,43%
